Measurements reported in patent US10941182 (Amgen, dated 2021).
Starred links: 1 amine or outer side, 2 acyl side, 3 side chain; linkers in the order of their positions; H or OH if unused. Non-standard residues stand in square brackets, D forms with d. Primed or numbered codes have the meaning given here. No end group written: not given here. *: point of attachment. Pra′ = its azide, alkyne or alkene has reacted where a group follows in round brackets; Atz = 3-(1,2,3-triazol-4-yl)alanine, O=C([C@H](Cc1c[nH]nn1)N[*:1])[*:2]; Propanoyl(3-triazol-4-yl) = O=C(CCc1cn([*:1])nn1)[*:2]; PEG12 = NCCOCCOCCOCCOCCOCCOCCOCCOCCOCCOCCOCCOCCC(=O)O; dBip = N[C@H](Cc1ccc(-c2ccccc2)cc1)C(=O)O; BhLeu = source's own code, no definition; BhPhe = source's own code, no definition; Oic = O=C(O)[C@@H]1C[C@@H]2CCCC[C@@H]2N1; Phe(4-Cl) = N[C@@H](Cc1ccc(Cl)cc1)C(=O)O; dPhe(4-Cl) = N[C@H](Cc1ccc(Cl)cc1)C(=O)O; Phe(4-I) = N[C@@H](Cc1ccc(I)cc1)C(=O)O; γGlu = O=C(O)[C@H](CCC(=O)[*:2])N[*:1]; d1Nal = N[C@H](Cc1cccc2ccccc12)C(=O)O; NMeR = CN[C@@H](CCCNC(=N)N)C(=O)O; Tridecanoyl = CCCCCCCCCCCCC(=O)*; hArg = N=C(N)NCCCC[C@H](N)C(=O)O; Cha = N[C@@H](CC1CCCCC1)C(=O)O; NMeL = CN[C@@H](CC(C)C)C(=O)O; AC4Abu″ = not defined here; code O = not defined here; Nle = CCCC[C@H](N)C(=O)O; Orn = NCCC[C@H](N)C(=O)O; AEEA = NCCOCCOCC(=O)O; βAla = NCCC(=O)O; Mpa = O=C(O)CCS

T1: rat APJ receptor (rat, UniProt Q9JHG3 1-377)
T1 sequence (looked up): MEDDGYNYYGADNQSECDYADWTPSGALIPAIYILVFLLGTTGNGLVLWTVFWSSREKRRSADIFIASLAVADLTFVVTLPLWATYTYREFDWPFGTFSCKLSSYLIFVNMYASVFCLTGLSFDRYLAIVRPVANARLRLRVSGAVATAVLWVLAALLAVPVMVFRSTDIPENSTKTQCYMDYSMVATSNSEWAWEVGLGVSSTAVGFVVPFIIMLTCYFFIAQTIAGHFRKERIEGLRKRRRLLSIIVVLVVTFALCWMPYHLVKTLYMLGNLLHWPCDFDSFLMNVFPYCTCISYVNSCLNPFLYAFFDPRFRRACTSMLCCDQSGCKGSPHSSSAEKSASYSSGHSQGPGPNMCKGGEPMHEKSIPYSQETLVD

T2: human APJ receptor (human, UniProt P35414 1-380)
T2 sequence (looked up): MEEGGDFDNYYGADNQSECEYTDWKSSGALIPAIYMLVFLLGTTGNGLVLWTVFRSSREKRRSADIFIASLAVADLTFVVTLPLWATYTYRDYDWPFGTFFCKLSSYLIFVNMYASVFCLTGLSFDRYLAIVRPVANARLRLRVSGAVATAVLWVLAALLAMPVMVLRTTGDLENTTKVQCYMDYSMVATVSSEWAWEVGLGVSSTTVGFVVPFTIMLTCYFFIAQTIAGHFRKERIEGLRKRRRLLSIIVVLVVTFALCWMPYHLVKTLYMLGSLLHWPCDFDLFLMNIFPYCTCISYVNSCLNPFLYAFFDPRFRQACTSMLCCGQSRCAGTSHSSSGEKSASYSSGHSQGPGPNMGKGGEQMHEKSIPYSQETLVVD

T3: rat APJ receptor (rat, UniProt Q9JHG3 1-377)
T3 sequence (looked up): T1 sequence (looked up)

T4: human APJ receptor (human, UniProt P35414 1-380)
T4 sequence (looked up): T2 sequence (looked up)

B1: apelin polypeptide SEQ ID NO: 692 (peptide)
peptide: [code O]F[hArg][hArg][BhLeu][hArg]P[hArg][Cha]SHKG[Oic][Nle]P[Phe(4-Cl)]
modifications: reading uncertain; also: printed as OF[hArg][hArg][BhLeu][hArg]P[hArg][Cha]SHKG[Oic][Nle]P[4-Cl-F]
B2: apelin polypeptide SEQ ID NO: 686 (peptide)
peptide: [code O][BhPhe][hArg][hArg]Q[hArg]P[hArg][Cha]SHKG[Oic][Nle]P[Phe(4-Cl)]
modifications: reading uncertain; also: printed as O[BhPhe][hArg][hArg]Q[hArg]P[hArg][Cha]SHKG[Oic][Nle]P[4-Cl-F]
B3: apelin polypeptide SEQ ID NO: 97 (peptide)
peptide: KFRRQRP[hArg][Cha]SHKG[Oic][Nle]P[Phe(4-Cl)]-OH
modifications: not fully specified (N-terminus); printed as [MerPr](20K mPEGacetamide)KFRRQRP[hArg][Cha]SHKG[Oic][Nle]P[4-Cl-F]{COOH}; also: 20K mPEG acetamide conjugate on MerPr
B4: apelin polypeptide SEQ ID NO: 56 (peptide)
peptide: Ac-[hArg][hArg]Q[hArg]P[NMeR][Cha]SHKG[Oic][Nle]P[Phe(4-Cl)]-OH
SMILES: CCCC[C@H](NC(=O)[C@@H]1C[C@@H]2CCCC[C@@H]2N1C(=O)CNC(=O)[C@H](CCCCN)NC(=O)[C@H](Cc1c[nH]cn1)NC(=O)[C@H](CO)NC(=O)[C@H](CC1CCCCC1)NC(=O)[C@H](CCCNC(=N)N)N(C)C(=O)[C@@H]1CCCN1C(=O)[C@H](CCCCNC(=N)N)NC(=O)[C@H](CCC(N)=O)NC(=O)[C@H](CCCCNC(=N)N)NC(=O)[C@H](CCCCNC(=N)N)NC(C)=O)C(=O)N1CCC[C@H]1C(=O)N[C@@H](Cc1ccc(Cl)cc1)C(=O)O
B5: apelin polypeptide SEQ ID NO: 708 (peptide)
peptide: [code O]F[hArg][hArg]Q[hArg]P[hArg][Cha]SHKG[Oic][βAla]P[Phe(4-Cl)]
modifications: reading uncertain; also: printed as OF[hArg][hArg]Q[hArg]P[hArg][Cha]SHKG[Oic][bAla]P[4-Cl-F]
B6: SEQ ID NO: 312 (peptide)
peptide: Tridecanoyl-[γGlu][AEEA][AEEA][hArg][dR]Q[hArg]P[dR][NMeL]SH[Nle]G[Oic][Phe(4-I)]P[dBip]-OH
SMILES: CCCCCCCCCCCCC(=O)N[C@@H](CCC(=O)NCCOCCOCC(=O)NCCOCCOCC(=O)N[C@@H](CCCCNC(=N)N)C(=O)N[C@H](CCCNC(=N)N)C(=O)N[C@@H](CCC(N)=O)C(=O)N[C@@H](CCCCNC(=N)N)C(=O)N1CCC[C@H]1C(=O)N[C@H](CCCNC(=N)N)C(=O)N(C)[C@@H](CC(C)C)C(=O)N[C@@H](CO)C(=O)N[C@@H](Cc1c[nH]cn1)C(=O)N[C@@H](CCCC)C(=O)NCC(=O)N1[C@H](C(=O)N[C@@H](Cc2ccc(I)cc2)C(=O)N2CCC[C@H]2C(=O)N[C@H](Cc2ccc(-c3ccccc3)cc2)C(=O)O)C[C@@H]2CCCC[C@@H]21)C(=O)O
B7: SEQ ID NO: 322 (peptide)
peptide: Tridecanoyl-[γGlu][AEEA][AEEA][hArg][dR]Q[Nle]P[dR][NMeL]AHKG[Oic][Phe(4-I)]P[dBip]-OH
SMILES: CCCCCCCCCCCCC(=O)N[C@@H](CCC(=O)NCCOCCOCC(=O)NCCOCCOCC(=O)N[C@@H](CCCCNC(=N)N)C(=O)N[C@H](CCCNC(=N)N)C(=O)N[C@@H](CCC(N)=O)C(=O)N[C@@H](CCCC)C(=O)N1CCC[C@H]1C(=O)N[C@H](CCCNC(=N)N)C(=O)N(C)[C@@H](CC(C)C)C(=O)N[C@@H](C)C(=O)N[C@@H](Cc1c[nH]cn1)C(=O)N[C@@H](CCCCN)C(=O)NCC(=O)N1[C@H](C(=O)N[C@@H](Cc2ccc(I)cc2)C(=O)N2CCC[C@H]2C(=O)N[C@H](Cc2ccc(-c3ccccc3)cc2)C(=O)O)C[C@@H]2CCCC[C@@H]21)C(=O)O
B8: SEQ ID NO: 324 (peptide)
peptide: Tridecanoyl-[γGlu][AEEA][AEEA][hArg][dR]Q[hArg]P[dR][NMeL]SA[Nle]G[Oic][Phe(4-I)]P[dBip]-OH
SMILES: CCCCCCCCCCCCC(=O)N[C@@H](CCC(=O)NCCOCCOCC(=O)NCCOCCOCC(=O)N[C@@H](CCCCNC(=N)N)C(=O)N[C@H](CCCNC(=N)N)C(=O)N[C@@H](CCC(N)=O)C(=O)N[C@@H](CCCCNC(=N)N)C(=O)N1CCC[C@H]1C(=O)N[C@H](CCCNC(=N)N)C(=O)N(C)[C@@H](CC(C)C)C(=O)N[C@@H](CO)C(=O)N[C@@H](C)C(=O)N[C@@H](CCCC)C(=O)NCC(=O)N1[C@H](C(=O)N[C@@H](Cc2ccc(I)cc2)C(=O)N2CCC[C@H]2C(=O)N[C@H](Cc2ccc(-c3ccccc3)cc2)C(=O)O)C[C@@H]2CCCC[C@@H]21)C(=O)O
B9: SEQ ID NO: 334 (peptide)
peptide: Tridecanoyl-[γGlu][AEEA][AEEA][hArg][dR]Q[Nle]P[dR][NMeL]AAKG[Oic][Phe(4-I)]P[dBip]-OH
SMILES: CCCCCCCCCCCCC(=O)N[C@@H](CCC(=O)NCCOCCOCC(=O)NCCOCCOCC(=O)N[C@@H](CCCCNC(=N)N)C(=O)N[C@H](CCCNC(=N)N)C(=O)N[C@@H](CCC(N)=O)C(=O)N[C@@H](CCCC)C(=O)N1CCC[C@H]1C(=O)N[C@H](CCCNC(=N)N)C(=O)N(C)[C@@H](CC(C)C)C(=O)N[C@@H](C)C(=O)N[C@@H](C)C(=O)N[C@@H](CCCCN)C(=O)NCC(=O)N1[C@H](C(=O)N[C@@H](Cc2ccc(I)cc2)C(=O)N2CCC[C@H]2C(=O)N[C@H](Cc2ccc(-c3ccccc3)cc2)C(=O)O)C[C@@H]2CCCC[C@@H]21)C(=O)O

The binders below were run against T1, rat APJ receptor (assay: cell-based or functional assay).

Binder | EC50 Rat APJ Receptor
Tridecanoyl-[AC4Abu″][AEEA][AEEA][hArg]Q[dR]P[NMeR][Cha]SHKG[Oic][Nle][d1Nal]-OH (reading uncertain) [apelin polypeptide SEQ ID NO: 165] | 30.3 nM
B1 | 0.503 nM
Ac-[Pra′](20K‑mPEGReg)[Orn]F[hArg][hArg]QRP[hArg][NMeL]SHKG[Oic][Phe(4-I)]P[dBip]-OH [apelin polypeptide SEQ ID NO: 107] | 10 nM
{20K mPEGacetamide}-[Mpa]QRP[hArg][Cha]SHKG[Oic][Nle]P[Phe(4-Cl)]-OH (numbers in words are those of the source; also: 20 kDa PEG conjugate) [apelin polypeptide SEQ ID NO: 101] | 150 nM
B2 | 0.188 nM
B3 | 0.253 nM
Tridecanoyl-[AC4Abu″][AEEA][AEEA][hArg]Q[dR]P[NMeR][Cha]SHKG[Oic][Nle]P[dPhe(4-Cl)]-OH (reading uncertain) [apelin polypeptide SEQ ID NO: 230] | 13.8 nM
Ac-[Atz](20K‑mPEG)KFRRQRP[hArg][Cha]SHKG[Oic][Nle]P[Phe(4-Cl)]-OH [apelin polypeptide SEQ ID NO: 105] | 0.285 nM
[PEG12]KFRRQRP[hArg][Cha]SHKG[Oic][Nle]P[Phe(4-Cl)]-OH (also: PEG-apelin peptide conjugate) [apelin polypeptide SEQ ID NO: 102] | 0.18 nM
B4 | 0.915 nM
{20K‑mPEGReg-Propanoyl(3-triazol-4-yl)}-[hArg][dR]Q[hArg]P[dR][NMeL]SHKG[Oic][Phe(4-I)]P[dBip]-OH (also: 20 kDa PEG conjugate) [apelin polypeptide SEQ ID NO: 103] | 52.2 nM
Ac-[Atz](20K‑mPEG)LRP[hArg][Cha]SHKG[Oic][Nle]P[Phe(4-Cl)]-OH [apelin polypeptide SEQ ID NO: 106] | 47.3 nM
{20K‑mPEGReg-Propanoyl(3-triazol-4-yl)}-[hArg]RQ[hArg]PR[NMeL]SHKG[Oic][Phe(4-I)]P[dBip]-OH (also: 20 kDa PEG conjugate) [apelin polypeptide SEQ ID NO: 104] | 45 nM

The binders below were run against T2, human APJ receptor (assay: cell-based or functional assay).

Binder | EC50 Human APJ Receptor
Ac-[Pra′](20K‑mPEGReg)[Orn]F[hArg][hArg]QRP[hArg][NMeL]SHKG[Oic][Phe(4-I)]P[dBip]-OH [apelin polypeptide SEQ ID NO: 107] | 10.5 nM
{20K mPEGacetamide}-[Mpa]QRP[hArg][Cha]SHKG[Oic][Nle]P[Phe(4-Cl)]-OH (numbers in words are those of the source; also: 20 kDa PEG conjugate) [apelin polypeptide SEQ ID NO: 101] | 46.7 nM
[hArg]Q[hArg]P[NMeR][Cha]SHKG[Oic][Nle]P[Phe(4-Cl)] [apelin polypeptide SEQ ID NO: 674] | 0.152 nM
Ac-[Atz](20K‑mPEG)KFRRQRP[hArg][Cha]SHKG[Oic][Nle]P[Phe(4-Cl)]-OH [apelin polypeptide SEQ ID NO: 105] | 0.187 nM
[PEG12]KFRRQRP[hArg][Cha]SHKG[Oic][Nle]P[Phe(4-Cl)]-OH (also: PEG-apelin peptide conjugate) [apelin polypeptide SEQ ID NO: 102] | 0.083 nM
B5 | 7.46 nM
{20K‑mPEGReg-Propanoyl(3-triazol-4-yl)}-[hArg][dR]Q[hArg]P[dR][NMeL]SHKG[Oic][Phe(4-I)]P[dBip]-OH (also: 20 kDa PEG conjugate) [apelin polypeptide SEQ ID NO: 103] | 34.2 nM
Tridecanoyl-[AC4Abu″][AEEA][AEEA]RQRP[hArg][NMeL]SHKG[Oic][Phe(4-I)]P[dBip]-OH (reading uncertain) [apelin polypeptide SEQ ID NO: 212] | 0.515 nM
Ac-[Atz](20K‑mPEG)LRP[hArg][Cha]SHKG[Oic][Nle]P[Phe(4-Cl)]-OH [apelin polypeptide SEQ ID NO: 106] | 3.22 nM
{20K‑mPEGReg-Propanoyl(3-triazol-4-yl)}-[hArg]RQ[hArg]PR[NMeL]SHKG[Oic][Phe(4-I)]P[dBip]-OH (also: 20 kDa PEG conjugate) [apelin polypeptide SEQ ID NO: 104] | 18.9 nM

These binders were tested against T3, rat APJ receptor (assay: cell-based or functional assay).

Binder | EC50 Rat APJ Receptor
B6 | 10.6 nM
B7 | 26.5 nM
B8 | 20.4 nM
B9 | 44.7 nM

Each binder was assayed against T4, human APJ receptor (assay: cell-based or functional assay).

Binder | EC50 Human APJ Receptor
B6 | 13.6 nM
B7 | 16.3 nM
B8 | 14.9 nM
B9 | 34.1 nM
